Source: the Immune Epitope Database (IEDB)

Assays:
HLA-A*02:01 [1] = assay: IEDB peptide-MHC binding, purified MHC/competitive/radioactivity; filed as Kd, often an IC50 or EC50 that approximates it; ≥ and ≤ were set here for values at or beyond the usual limits of such assays
HLA-A*02:17 = assay: as above
HLA-A*02:03 = assay: as above
HLA-B*15:17 = assay: IEDB peptide-MHC binding, purified MHC/direct/fluorescence; filed as Kd, often an IC50 or EC50 that approximates it; ≥ and ≤ were set here for values at or beyond the usual limits of such assays
HLA-B*57:01 [2] = assay: as above
HLA-B*58:01 = assay: as above
HLA-A*02:06 = assay: IEDB peptide-MHC binding, purified MHC/competitive/radioactivity; filed as Kd, often an IC50 or EC50 that approximates it; ≥ and ≤ were set here for values at or beyond the usual limits of such assays
HLA-B*48:01 = assay: IEDB peptide-MHC binding, purified MHC/direct/fluorescence; filed as Kd, often an IC50 or EC50 that approximates it; ≥ and ≤ were set here for values at or beyond the usual limits of such assays
HLA-A*68:01 = assay: IEDB peptide-MHC binding, purified MHC/competitive/radioactivity; filed as Kd, often an IC50 or EC50 that approximates it; ≥ and ≤ were set here for values at or beyond the usual limits of such assays; details: source organism: Dengue virus 3 Martinique/1243/1999
HLA-B*57:01 [3] = assay: as above
HLA-A*11:01 = assay: IEDB peptide-MHC binding, purified MHC/competitive/fluorescence; ≥ and ≤ were set here for values at or beyond the usual limits of such assays; details: source organism: Vaccinia virus
HLA-B*46:01 = assay: IEDB peptide-MHC binding, purified MHC/direct/fluorescence; filed as Kd, often an IC50 or EC50 that approximates it; ≥ and ≤ were set here for values at or beyond the usual limits of such assays; details: source organism: Dengue virus
HLA-A*30:02 = assay: IEDB peptide-MHC binding, purified MHC/competitive/radioactivity; filed as Kd, often an IC50 or EC50 that approximates it; ≥ and ≤ were set here for values at or beyond the usual limits of such assays; details: source organism: Dengue virus 2 Jamaica/1409/1983
HLA-A*02:01 [4] = assay: IEDB peptide-MHC binding, purified MHC/direct/fluorescence; filed as Kd, often an IC50 or EC50 that approximates it; ≥ and ≤ were set here for values at or beyond the usual limits of such assays; details: source organism: Orthohantavirus andesense
HLA-A*02:11 = assay: as above; details: source organism: Orthohantavirus tulaense
HLA-A*02:12 = assay: as above; details: source organism: Orthohantavirus tulaense
HLA-A*02:19 = assay: as above; details: source organism: Orthohantavirus tulaense
HLA-B*27:05 = assay: as above; details: source organism: Francisella tularensis subsp. holarctica LVS
HLA-B*08:01 = assay: IEDB peptide-MHC binding, purified MHC/competitive/radioactivity; filed as Kd, often an IC50 or EC50 that approximates it; ≥ and ≤ were set here for values at or beyond the usual limits of such assays
HLA-B*15:01 = assay: as above; details: source organism: Dengue virus 2 Peru/IQT2913/1996
HLA-B*18:01 = assay: as above
HLA-B*40:01 = assay: as above
HLA-B*40:02 = assay: as above
HLA-B*44:02 = assay: as above
HLA-B*44:03 = assay: as above
HLA-B*45:01 = assay: as above
[5] = source organism: Dengue virus 2 Jamaica/1409/1983
[6] = source organism: Dengue virus 4 Dominica/814669/1981
[7] = source organism: Marburg virus - Musoke, Kenya, 1980
[8] = source organism: Dengue virus 4 Philippines/H241/1956
[9] = source organism: Dengue virus 1 Singapore/S275/1990
[10] = source organism: Dengue virus 1 Brazil/97-11/1997
[11] = source organism: West Nile virus
[12] = source organism: Dengue virus 3 Martinique/1243/1999
[13] = source organism: Camelpox virus M-96
[14] = source organism: Dengue virus 3 China/80-2/1980
[15] = source organism: Yellow fever virus
[16] = source organism: Dengue virus 2 Thailand/NGS-C/1944
[17] = source organism: Dengue virus 2 Peru/IQT2913/1996
[18] = source organism: Mammarenavirus machupoense
[19] = source organism: Mammarenavirus juninense

Sequence: ALLLLVAHYA
- Kd (HLA-A*02:01 [1]; [5]): 1330 nM
- Kd (HLA-A*02:17; [5]): ≥ 70400 nM

Sequence: ALSEGVYRI
- Kd (HLA-A*02:01 [1]; [6]): 2.88 nM
- Kd (HLA-A*02:03; [6]): 17.3 nM
- Kd (HLA-A*02:17; [6]): 172 nM

Sequence: ATAVNQECW
- Kd (HLA-B*15:17; [7]): 4.1 nM
- Kd (HLA-B*57:01 [2]; [7]): 122 nM
- Kd (HLA-B*58:01; [7]): 51.6 nM

Sequence: FLDLPLPWA
- Kd (HLA-A*02:01 [1]; [8]): 10.4 nM
- Kd (HLA-A*02:17; [8]): 108 nM

Sequence: FMNEDHWFS
- Kd (HLA-A*02:01 [1]; [9]): 9.76 nM
- Kd (HLA-A*02:06; [10]): 270 nM
- Kd (HLA-A*02:17; [9]): 244 nM

Sequence: GQWGGDWAV
- Kd (HLA-B*48:01; source organism: Brucella abortus 2308): 61.4 nM

Sequence: GRMEKKTWK
- Kd (HLA-B*48:01; [11]): ≥ 20000 nM

Sequence: GTSGSPIINR
- Kd (HLA-A*68:01): 13.8 nM
- Kd (HLA-B*57:01 [3]; [12]): 4000 nM

Sequence: GTSGSPIVDR
- Kd (HLA-B*57:01 [3]; [5]): 2340 nM

Sequence: IILEFFLMV
- Kd (HLA-A*02:06; [10]): 1.78 nM
- Kd (HLA-A*02:17; [8]): 182 nM

Sequence: ISGSNIVIF
- Kd (HLA-B*15:17; [13]): 155 nM
- Kd (HLA-B*57:01 [2]; [13]): ≥ 20000 nM
- Kd (HLA-B*58:01; [13]): 904 nM

Sequence: KGVEYNIDK
- IC50 (HLA-A*11:01): 31600 nM

Sequence: KLEKASLIEV
- Kd (HLA-A*02:17; [14]): 1140 nM

Sequence: KLFMALVAFL
- Kd (HLA-A*02:01 [1]; [5]): 46.6 nM
- Kd (HLA-A*02:03; [5]): 3.35 nM
- Kd (HLA-A*02:17; [5]): 51.8 nM

Sequence: KLQLKGMSY
- Kd (HLA-B*46:01): ≥ 20000 nM
- Kd (HLA-A*30:02): 131 nM

Sequence: KLYEGDLRV
- Kd (HLA-A*02:01 [4]): ≤ 1 nM
- Kd (HLA-A*02:11): ≤ 1 nM
- Kd (HLA-A*02:12): 5 nM
- Kd (HLA-A*02:19): 8 nM

Sequence: KPYMAMSAL
- Kd (HLA-B*48:01; source organism: Salmonella enterica subsp. enterica serovar Typhimurium): 541 nM

Sequence: KQLGQVMLLV
- Kd (HLA-A*02:01 [1]; [8]): 20.2 nM
- Kd (HLA-A*02:06; [12]): 5.78 nM
- Kd (HLA-A*02:17; [8]): 172 nM

Sequence: KRLSVNQKY
- Kd (HLA-B*27:05): 62.2 nM
- Kd (HLA-B*48:01; source organism: Francisella tularensis subsp. holarctica LVS): ≥ 20000 nM

Sequence: KSFLVHREW
- Kd (HLA-B*15:17; [11]): 5.7 nM

Sequence: LAVMGDAAW
- Kd (HLA-B*15:17; [15]): 27 nM
- Kd (HLA-B*57:01 [2]; [15]): 35.5 nM

Sequence: LLLMRTSWAL
- Kd (HLA-A*02:01 [1]; [14]): 5.52 nM
- Kd (HLA-A*02:06; [12]): 13.3 nM
- Kd (HLA-A*02:17; [14]): 15.3 nM
- Kd (HLA-B*08:01; [12]): 1.47 nM

Sequence: LLLTIGLSLV
- Kd (HLA-A*02:01 [1]; [9]): 3.91 nM
- Kd (HLA-A*02:03; [10]): 14.6 nM
- Kd (HLA-A*02:06; [10]): 62 nM
- Kd (HLA-A*02:17; [9]): 2620 nM

Sequence: LMMTTIGIVL
- Kd (HLA-A*02:01 [1]; [16]): 28.9 nM
- Kd (HLA-A*02:06; [17]): 30.8 nM
- Kd (HLA-A*02:17; [16]): 1190 nM
- Kd (HLA-B*08:01; [17]): 5900 nM
- Kd (HLA-B*15:01): 21.7 nM

Sequence: LTSLGKAVHQ
- Kd (HLA-B*57:01 [3]; [8]): ≥ 70400 nM

Sequence: NDNFLMRNV
- Kd (HLA-B*18:01; [18]): ≥ 76700 nM
- Kd (HLA-B*40:01; [18]): ≥ 76100 nM
- Kd (HLA-B*40:02; [18]): 2120 nM
- Kd (HLA-B*44:02; [18]): 9960 nM
- Kd (HLA-B*44:03; [18]): ≥ 42500 nM
- Kd (HLA-B*45:01; [18]): ≥ 77500 nM

Sequence: NVTTQSIHE
- IC50 (HLA-A*11:01): ≥ 148000 nM

Sequence: PDFNSLISI
- Kd (HLA-B*18:01; [18]): ≥ 77500 nM
- Kd (HLA-B*40:01; [18]): 15800 nM
- Kd (HLA-B*40:02; [18]): 813 nM
- Kd (HLA-B*44:02; [18]): ≥ 26600 nM
- Kd (HLA-B*44:03; [18]): ≥ 78100 nM
- Kd (HLA-B*45:01; [18]): ≥ 77700 nM

Sequence: PDVLRSDVY
- Kd (HLA-B*18:01; [19]): 2250 nM
- Kd (HLA-B*40:01; [19]): ≥ 76100 nM
- Kd (HLA-B*40:02; [19]): ≥ 77200 nM
- Kd (HLA-B*44:02; [19]): ≥ 48500 nM
- Kd (HLA-B*44:03; [19]): ≥ 78100 nM
- Kd (HLA-B*45:01; [19]): ≥ 77700 nM
